These are literature values, as cited in paper PMC3623542.

Like-named read-outs stand apart in the source and are kept apart here.

Data set [1] concerns the target DnaK (Escherichia coli) (UniProt P0A6Y8). Briefly: NMR.
For data set [2] the target is unchanged. Briefly: SPR.
The target is the same in data set [3].
The target is the same in data set [4]. Briefly: SPR. The source holds these as a separate data set. Background: Surface plasmon resonance follows binding to a sensor surface in real time, without labels.
Data set [5] has the same target. The source holds these as a separate data set.
For data set [6] the target is unchanged. Put plainly: SPR. This is another data set of the same source.

Sequence of DnaK (Escherichia coli) (P0A6Y8 2-638): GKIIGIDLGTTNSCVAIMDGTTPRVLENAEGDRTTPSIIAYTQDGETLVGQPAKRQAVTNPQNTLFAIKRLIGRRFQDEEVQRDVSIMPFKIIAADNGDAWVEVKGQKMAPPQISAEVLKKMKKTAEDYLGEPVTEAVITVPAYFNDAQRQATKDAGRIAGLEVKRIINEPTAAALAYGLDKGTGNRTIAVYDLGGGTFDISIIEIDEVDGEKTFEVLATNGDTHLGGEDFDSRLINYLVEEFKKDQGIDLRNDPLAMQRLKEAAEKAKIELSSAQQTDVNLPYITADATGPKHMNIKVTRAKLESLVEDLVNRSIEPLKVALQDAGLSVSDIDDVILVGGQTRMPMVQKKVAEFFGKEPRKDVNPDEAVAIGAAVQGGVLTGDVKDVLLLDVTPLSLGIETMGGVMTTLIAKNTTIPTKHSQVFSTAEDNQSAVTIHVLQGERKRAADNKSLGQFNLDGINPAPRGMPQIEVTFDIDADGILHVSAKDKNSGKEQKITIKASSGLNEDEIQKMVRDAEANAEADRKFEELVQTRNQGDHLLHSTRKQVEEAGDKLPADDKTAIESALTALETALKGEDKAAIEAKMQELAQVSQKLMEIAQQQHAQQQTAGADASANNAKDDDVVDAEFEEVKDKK
Sequence of DnaJ (P08622 2-376): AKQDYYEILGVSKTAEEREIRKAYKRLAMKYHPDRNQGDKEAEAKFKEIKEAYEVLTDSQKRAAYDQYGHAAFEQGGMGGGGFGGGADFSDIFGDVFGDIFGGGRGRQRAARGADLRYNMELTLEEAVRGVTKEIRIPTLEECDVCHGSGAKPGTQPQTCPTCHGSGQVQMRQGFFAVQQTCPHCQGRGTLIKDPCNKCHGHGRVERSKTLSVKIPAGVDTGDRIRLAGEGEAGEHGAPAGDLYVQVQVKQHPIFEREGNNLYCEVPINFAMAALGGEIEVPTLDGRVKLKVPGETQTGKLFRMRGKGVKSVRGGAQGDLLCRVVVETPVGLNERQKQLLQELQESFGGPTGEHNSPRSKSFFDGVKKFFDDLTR
Sequence of DnaJ 1-75 (P08622 1-75): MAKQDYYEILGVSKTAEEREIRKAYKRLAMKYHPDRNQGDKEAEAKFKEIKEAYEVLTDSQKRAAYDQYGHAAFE

As for DnaJ 1-75 (from UniProt P08622), the Kd with DnaK (Escherichia coli) [1] is 10000 nM.
With DnaJ (from UniProt P08622), the Kd in the data set with DnaK (Escherichia coli) [2] is above 1000 nM; with DnaK (Escherichia coli) [3] it was 140 nM; with DnaK (Escherichia coli) [4], 300 nM; in the data set with DnaK (Escherichia coli) [5], above 2000 nM; with DnaK (Escherichia coli) [6], 70 nM.

As a reminder, the Kd is a measure of binding affinity in units of concentration.
